Assay results as given in US20050282743A1, “Molecular interactions in cells” (Arbor Vita Corporation, priority 2001, published 2005).

T1: GST-MINT1 PDZ domains 1, 2, Q02410
T1 chain: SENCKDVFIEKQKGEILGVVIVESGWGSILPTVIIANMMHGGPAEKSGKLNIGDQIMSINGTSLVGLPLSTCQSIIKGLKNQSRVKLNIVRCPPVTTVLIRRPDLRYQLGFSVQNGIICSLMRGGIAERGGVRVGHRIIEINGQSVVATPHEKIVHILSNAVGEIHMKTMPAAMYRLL

T2: GST-MUPP1 PDZ domain 3 (Homo sapiens (Human)), O75970
T2 chain: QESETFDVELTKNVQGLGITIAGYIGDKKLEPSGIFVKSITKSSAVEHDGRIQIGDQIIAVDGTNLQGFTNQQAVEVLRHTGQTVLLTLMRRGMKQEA

T3: GST-KIAA0807(S) PDZ domain 1 (Homo sapiens (Human)), Q6P0Q8
T3 chain: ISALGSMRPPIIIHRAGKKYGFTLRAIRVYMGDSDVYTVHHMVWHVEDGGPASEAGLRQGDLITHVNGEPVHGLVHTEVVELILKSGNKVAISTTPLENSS

T4: GST-FLJ 10324 PDZ domain 1 [GST: P08515]
T4 chain: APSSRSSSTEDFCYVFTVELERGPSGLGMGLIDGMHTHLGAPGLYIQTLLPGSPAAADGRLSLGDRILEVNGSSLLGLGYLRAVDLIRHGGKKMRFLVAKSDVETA

T5: GST-MUPP1 PDZ domain 2 (Homo sapiens (Human)), O75970
T5 chain: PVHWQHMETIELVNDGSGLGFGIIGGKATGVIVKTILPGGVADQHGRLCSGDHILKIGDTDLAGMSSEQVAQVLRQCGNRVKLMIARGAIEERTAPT

T6: GST-MUPP1 PDZ domain 11 (Homo sapiens (Human)), O75970
T6 chain: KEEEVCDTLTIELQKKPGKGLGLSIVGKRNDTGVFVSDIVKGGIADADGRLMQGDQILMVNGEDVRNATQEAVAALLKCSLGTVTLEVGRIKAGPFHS

T7: GST-MINT1 PDZ domain 2 (Mus musculus (Mouse)), B2RUJ5
T7 chain: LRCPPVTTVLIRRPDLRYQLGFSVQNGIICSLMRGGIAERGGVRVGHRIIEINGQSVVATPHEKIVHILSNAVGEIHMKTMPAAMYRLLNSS

T8: GST-DVL2 PDZ domain 1 (Homo sapiens (Human)), O14641
T8 chain: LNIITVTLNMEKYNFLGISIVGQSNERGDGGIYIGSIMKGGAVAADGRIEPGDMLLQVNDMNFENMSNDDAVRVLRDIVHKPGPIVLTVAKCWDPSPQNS

T9: GST-MUPP1 PDZ domain 9 (Homo sapiens (Human)), O75970
T9 chain: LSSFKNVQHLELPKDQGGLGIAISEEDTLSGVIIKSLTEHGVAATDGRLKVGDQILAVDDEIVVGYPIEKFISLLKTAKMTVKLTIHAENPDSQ

T10: GST-MINT1 PDZ domain 1 (Mus musculus (Mouse)), B2RUJ5
T10 chain: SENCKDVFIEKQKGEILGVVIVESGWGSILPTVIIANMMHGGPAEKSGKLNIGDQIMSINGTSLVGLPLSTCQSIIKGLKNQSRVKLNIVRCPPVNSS

T11: GST-ZO-3 PDZ domain 3 (Homo sapiens (Human)), O95049
T11 chain: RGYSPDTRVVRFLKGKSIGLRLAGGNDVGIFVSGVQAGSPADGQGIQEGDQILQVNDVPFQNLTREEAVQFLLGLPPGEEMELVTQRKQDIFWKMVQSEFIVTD

T12: GST-AIPC PDZ domain 1 (Homo sapiens (Human)), O15018
T12 chain: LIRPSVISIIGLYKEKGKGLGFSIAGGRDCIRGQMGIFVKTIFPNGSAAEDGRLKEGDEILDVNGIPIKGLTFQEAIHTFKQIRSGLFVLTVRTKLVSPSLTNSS

T13: GST-KIAA0382 PDZ domain 1 (Canis lupus familiaris (Dog) (Canis familiaris)), A0A8I3
T13 chain: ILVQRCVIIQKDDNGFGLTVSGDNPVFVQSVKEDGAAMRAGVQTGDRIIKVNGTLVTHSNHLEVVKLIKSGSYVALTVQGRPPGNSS

T14: GST-SYNTENIN PDZ domain 1 (Homo sapiens (Human)), O00560
T14 chain: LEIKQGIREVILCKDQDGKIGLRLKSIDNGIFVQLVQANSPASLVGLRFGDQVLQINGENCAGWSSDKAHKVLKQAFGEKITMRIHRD

T15: GST-HEMBA 1003117 PDZ domain 1 (Homo sapiens (Human)), Q96JH8
T15 chain: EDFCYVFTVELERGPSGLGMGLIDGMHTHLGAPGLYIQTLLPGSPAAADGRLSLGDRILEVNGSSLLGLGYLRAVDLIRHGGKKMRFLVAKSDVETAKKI

T16: GST-PTPL1 PDZ domain 4 (Homo sapiens (Human)), Q12923
T16 chain: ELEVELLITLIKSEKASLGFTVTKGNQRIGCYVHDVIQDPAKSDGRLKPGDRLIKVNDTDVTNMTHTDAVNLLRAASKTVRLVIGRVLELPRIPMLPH

T17: GST-MUPP1 PDZ domain 7 (Homo sapiens (Human)), O75970
T17 chain: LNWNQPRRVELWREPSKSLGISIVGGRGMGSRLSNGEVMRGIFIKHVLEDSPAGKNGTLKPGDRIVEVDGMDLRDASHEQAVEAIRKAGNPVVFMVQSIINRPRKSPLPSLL

T18: GST-KIAA1719 PDZ domain 6 (Homo sapiens (Human)), Q9C0E4
T18 chain: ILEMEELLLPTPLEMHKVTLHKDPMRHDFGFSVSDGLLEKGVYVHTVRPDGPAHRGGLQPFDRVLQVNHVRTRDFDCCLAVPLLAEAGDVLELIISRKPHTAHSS

T19: GST-Shank 1 PDZ domain 1 (Homo sapiens (Human)), Q9UPX8
T19 chain: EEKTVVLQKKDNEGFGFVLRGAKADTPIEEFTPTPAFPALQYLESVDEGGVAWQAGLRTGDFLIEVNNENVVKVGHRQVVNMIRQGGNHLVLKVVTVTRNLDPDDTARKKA

T20: GST-APXL-1 PDZ domain 1 (Homo sapiens (Human)), Q13796
T20 chain: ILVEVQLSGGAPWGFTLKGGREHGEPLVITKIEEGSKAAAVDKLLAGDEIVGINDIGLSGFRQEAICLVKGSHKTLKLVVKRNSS

T21: GST-KIAA1719 PDZ domain 3 (Homo sapiens (Human)), Q9C0E4
T21 chain: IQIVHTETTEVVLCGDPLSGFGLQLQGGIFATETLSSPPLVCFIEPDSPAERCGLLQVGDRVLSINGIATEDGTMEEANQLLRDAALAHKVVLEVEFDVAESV

T22: GST-GRIP 1 PDZ domain 6 (Mus musculus (Mouse)), Q925T6
T22 chain: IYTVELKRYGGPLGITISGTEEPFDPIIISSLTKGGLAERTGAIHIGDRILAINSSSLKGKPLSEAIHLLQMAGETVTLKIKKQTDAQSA

T23: GST-X-11 beta PDZ domain 2 (Rattus norvegicus (Rat)), O35431
T23 chain: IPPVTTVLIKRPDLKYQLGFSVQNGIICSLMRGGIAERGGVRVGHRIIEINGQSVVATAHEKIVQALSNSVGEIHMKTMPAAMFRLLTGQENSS

T24: GST-KIAA0973 PDZ domain 1 (Homo sapiens (Human)), Q9Y2H9
T24 chain: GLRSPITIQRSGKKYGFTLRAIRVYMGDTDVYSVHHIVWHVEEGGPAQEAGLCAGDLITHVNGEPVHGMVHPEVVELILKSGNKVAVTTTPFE

T25: GST-AF6 PDZ domain 1 (Homo sapiens (Human)), P55196
T25 chain: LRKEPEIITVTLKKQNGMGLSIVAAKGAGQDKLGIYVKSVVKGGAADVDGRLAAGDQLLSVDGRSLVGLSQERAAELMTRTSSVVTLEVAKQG

T26: GST-LIM Protein PDZ domain 1 (Homo sapiens (Human)), Q96HC4
T26 chain: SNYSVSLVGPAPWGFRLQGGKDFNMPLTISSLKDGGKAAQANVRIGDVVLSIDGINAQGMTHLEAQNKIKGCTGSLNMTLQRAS

T27: GST-KIAA0561 PDZ domain 1 (Homo sapiens (Human)), O60307
T27 chain: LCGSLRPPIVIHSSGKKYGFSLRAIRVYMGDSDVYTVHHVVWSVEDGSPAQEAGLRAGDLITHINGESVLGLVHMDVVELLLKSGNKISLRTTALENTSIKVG

T28: GST-LIM-RIL PDZ domain 1 (Homo sapiens (Human)), P50479
T28 chain: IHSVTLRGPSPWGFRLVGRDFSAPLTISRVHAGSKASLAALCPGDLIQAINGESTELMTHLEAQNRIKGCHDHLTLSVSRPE

T29: GST-ENIGMA PDZ domain 1 (Homo sapiens (Human)), Q9NR12
T29 chain: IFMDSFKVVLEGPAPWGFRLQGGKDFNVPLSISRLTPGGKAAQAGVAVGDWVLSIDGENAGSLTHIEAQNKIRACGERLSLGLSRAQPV


Experiments:
Assay in all cases: G' assay
[1] = target: GST-KIAA1222 PDZ domain 1 (Rattus norvegicus (Rat)), O35867
[2] = target: T1, GST-MINT1 PDZ domains 1, 2, Q02410
[3] = target: T2, GST-MUPP1 PDZ domain 3 (Homo sapiens …)
[4] = target: T3, GST-KIAA0807(S) PDZ domain 1 (Homo …)
[5] = target: T4, GST-FLJ 10324 PDZ domain 1 [GST: P08515]
[6] = target: T5, GST-MUPP1 PDZ domain 2 (Homo sapiens …)
[7] = target: T6, GST-MUPP1 PDZ domain 11 (Homo sapiens …)
[8] = target: T7, GST-MINT1 PDZ domain 2 (Mus musculus …)
[9] = target: T8, GST-DVL2 PDZ domain 1 (Homo sapiens …)
[10] = target: T9, GST-MUPP1 PDZ domain 9 (Homo sapiens …)
[11] = target: T10, GST-MINT1 PDZ domain 1 (Mus musculus …)
[12] = target: GST-KIAA807 [GST: P08515]
[13] = target: T11, GST-ZO-3 PDZ domain 3 (Homo sapiens …)
[14] = target: T12, GST-AIPC PDZ domain 1 (Homo sapiens …)
[15] = target: GST-PAR3 PDZ domain 3 (Homo sapiens (Human)), Q8TEW0
[16] = target: T13, GST-KIAA0382 PDZ domain 1 (Canis lupus …)
[17] = target: T14, GST-SYNTENIN PDZ domain 1 (Homo sapiens …)
[18] = target: T15, GST-HEMBA 1003117 PDZ domain 1 (Homo …)
[19] = target: T16, GST-PTPL1 PDZ domain 4 (Homo sapiens …)
[20] = target: T17, GST-MUPP1 PDZ domain 7 (Homo sapiens …)
[21] = target: GST-BAI-1 Associated Protein PDZ domain 2 (Mus musculus (Mouse)), Q6RHR9
[22] = target: T18, GST-KIAA1719 PDZ domain 6 (Homo sapiens …)
[23] = target: T19, GST-Shank 1 PDZ domain 1 (Homo sapiens …)
[24] = target: T20, GST-APXL-1 PDZ domain 1 (Homo sapiens …)
[25] = target: T21, GST-KIAA1719 PDZ domain 3 (Homo sapiens …)
[26] = target: T22, GST-GRIP 1 PDZ domain 6 (Mus musculus …)
[27] = target: T23, GST-X-11 beta PDZ domain 2 (Rattus …)
[28] = target: T24, GST-KIAA0973 PDZ domain 1 (Homo sapiens …)
[29] = target: GST-KIAA1634 PDZ domain 1 (Homo sapiens (Human)), Q5TCQ9
[30] = target: T25, GST-AF6 PDZ domain 1 (Homo sapiens …)
[31] = target: T26, GST-LIM Protein PDZ domain 1 (Homo …)
[32] = target: T27, GST-KIAA0561 PDZ domain 1 (Homo sapiens …)
[33] = target: GST-KIAA0316 PDZ domain 1 (Homo sapiens (Human)), Q14CM0
[34] = target: T28, GST-LIM-RIL PDZ domain 1 (Homo sapiens …)
[35] = target: T29, GST-ENIGMA PDZ domain 1 (Homo sapiens …)
Further: key of the grades not given here.

Chain of GST-PAR3 PDZ domain 3 (Homo sapiens (Human)), Q8TEW0 (Q8TEW0 579-681): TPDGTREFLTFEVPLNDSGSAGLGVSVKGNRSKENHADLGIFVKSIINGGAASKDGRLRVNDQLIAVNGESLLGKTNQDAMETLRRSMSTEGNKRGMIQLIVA
Chain of GST-KIAA807 [GST: P08515] (P08515 whole entry, the tested form may be a part): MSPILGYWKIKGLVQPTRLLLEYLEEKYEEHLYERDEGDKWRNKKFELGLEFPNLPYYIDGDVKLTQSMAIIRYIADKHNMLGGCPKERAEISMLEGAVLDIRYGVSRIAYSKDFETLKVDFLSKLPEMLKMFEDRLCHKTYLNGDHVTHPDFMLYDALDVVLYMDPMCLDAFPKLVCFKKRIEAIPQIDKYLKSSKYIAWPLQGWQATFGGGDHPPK
Chain of GST-KIAA1634 PDZ domain 1 (Homo sapiens (Human)), Q5TCQ9 (Q5TCQ9 401-502): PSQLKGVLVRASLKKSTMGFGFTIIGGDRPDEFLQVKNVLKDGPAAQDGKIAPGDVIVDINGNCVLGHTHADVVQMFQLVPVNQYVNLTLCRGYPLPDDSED
Chain of GST-BAI-1 Associated Protein PDZ domain 2 (Mus musculus (Mouse)), Q6RHR9 (Q6RHR9 455-558): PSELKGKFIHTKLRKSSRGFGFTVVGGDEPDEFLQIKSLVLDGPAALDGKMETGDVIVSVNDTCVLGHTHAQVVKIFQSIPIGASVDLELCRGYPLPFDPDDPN
Chain of GST-KIAA0316 PDZ domain 1 (Homo sapiens (Human)), Q14CM0 (Q14CM0 72-159): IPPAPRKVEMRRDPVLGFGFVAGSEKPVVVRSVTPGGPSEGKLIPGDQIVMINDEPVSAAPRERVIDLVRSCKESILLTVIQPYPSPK
Chain of GST-KIAA1222 PDZ domain 1 (Rattus norvegicus (Rat)), O35867 (O35867 499-598, tags or fused parts left off): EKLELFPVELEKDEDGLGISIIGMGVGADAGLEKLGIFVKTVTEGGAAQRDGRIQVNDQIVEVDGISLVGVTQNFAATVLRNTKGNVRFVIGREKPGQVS

Row | Binder | Classification [2] [A450 class] | Classification [3] [A450 class] | Classification [4] [A450 class] | Classification [5] [A450 class] | Classification [7] [A450 class] | Classification [8] [A450 class] | Classification [9] [A450 class] | Classification [12] [A450 class] | Classification [15] [A450 class] | Classification [24] [A450 class] | Classification [28] [A450 class] | Classification [30] [A450 class] | Classification [31] [A450 class] | also measured
1 | KTMPAAMFRLLTGQETPLYI (modifications not checked) [MINT-2] | 5 | 1 | 4 | 4 | 5 | 1 | 2 | 3 | 5 |  |  |  |  | Classification [1]: 1 A450 class; Classification [6]: 1 A450 class; Classification [10]: 1 A450 class; Classification [11]: 2 A450 class; Classification [13]: 1 A450 class; Classification [14]: 1 A450 class; Classification [16]: 1 A450 class; Classification [17]: 2 A450 class; Classification [18]: 3 A450 class; Classification [19]: 4 A450 class; Classification [20]: 1 A450 class
2 | ALVLIAFCIIRRRPSAYQAL (modifications not checked) [CD68] | 1 |  | 5 | 1 |  | 2 | 2 |  |  | 2 | 1 |  |  | Classification [21]: 3 A450 class; Classification [22]: 1 A450 class; Classification [23]: 1 A450 class; Classification [25]: 1 A450 class; Classification [26]: 1 A450 class; Classification [27]: 1 A450 class; Classification [29]: 2 A450 class
3 | KTMPAATYRLLTGQEQPVYL (modifications not checked) [MINT-3] | 2 | 1 | 1 |  | 2 | 2 | 1 | 1 | 1 |  | 2 | 1 | 1 | Classification [32]: 1 A450 class; Classification [33]: 2 A450 class
4 | YSATYSELEDPGEMSPPIDL (modifications not checked) [FceRlb] |  |  |  |  |  |  |  |  |  | 1 |  | 2 | 2 | Classification [34]: 1 A450 class; Classification [35]: 2 A450 class
